Test results reported in article PMC4382515.

Substrate: N[C@@H](CCC(=O)O)C(=O)O
Experiment: purified protein
Conditions: pH 4.6; 25.0 °C

B1: EcGadB (Escherichia coli K-12) (protein)
chain: MDKKQVTDLRSELLDSRFGAKSISTIAESKRFPLHEMRDDVAFQIINDELYLDGNARQNLATFCQTWDDENVHKLMDLSINKNWIDKEEYPQSAAIDLRCVNMVADLWHAPAPKNGQAVGTNTIGSSEACMLGGMAMKWRWRKRMEAAGKPTDKPNLVCGPVQICWHKFARYWDVELREIPMRPGQLFMDPKRMIEACDENTIGVVPTFGVTYTGNYEFPQPLHDALDKFQADTGIDIDMHIDAASGGFLAPFVAPDIVWDFRLPRVKSISASGHKFGLAPLGCGWVIWRDEEALPQELVFNVDYLGGQIGTFAINFSRPAGQVIAQYYEFLRLGREGYTKVQNASYQVAAYLADEIAKLGPYEFICTGRPDEGIPAVCFKLKDGEDPGYTLYDLSERLRLRGWQVPAFTLGGEATDIVVMRIMCRRGFEMDFAELLLEDYKASLKYLSDHPKLQGIAQQNSFKHT
B1 was tested, and the Km was 1100 ± 180 µM and the kcat/Km was 13900 ± 2830 M⁻¹ s⁻¹.
